Experimental data published in patent US20120192297A1 (TOKYO INSTITUTE OF TECHNOLOGY, published 2012).

Biological target: Cullin 4A (Cul4A), endogenous in 293T cells (human, UniProt Q13619 1-759, limits assumed)
Assay: anti-FLAG immunoprecipitation from 293T cells, western blotting for DDB1 and Cul4A

Cullin 4A (Cul4A), endogenous in 293T cells, sequence (Q13619 whole entry): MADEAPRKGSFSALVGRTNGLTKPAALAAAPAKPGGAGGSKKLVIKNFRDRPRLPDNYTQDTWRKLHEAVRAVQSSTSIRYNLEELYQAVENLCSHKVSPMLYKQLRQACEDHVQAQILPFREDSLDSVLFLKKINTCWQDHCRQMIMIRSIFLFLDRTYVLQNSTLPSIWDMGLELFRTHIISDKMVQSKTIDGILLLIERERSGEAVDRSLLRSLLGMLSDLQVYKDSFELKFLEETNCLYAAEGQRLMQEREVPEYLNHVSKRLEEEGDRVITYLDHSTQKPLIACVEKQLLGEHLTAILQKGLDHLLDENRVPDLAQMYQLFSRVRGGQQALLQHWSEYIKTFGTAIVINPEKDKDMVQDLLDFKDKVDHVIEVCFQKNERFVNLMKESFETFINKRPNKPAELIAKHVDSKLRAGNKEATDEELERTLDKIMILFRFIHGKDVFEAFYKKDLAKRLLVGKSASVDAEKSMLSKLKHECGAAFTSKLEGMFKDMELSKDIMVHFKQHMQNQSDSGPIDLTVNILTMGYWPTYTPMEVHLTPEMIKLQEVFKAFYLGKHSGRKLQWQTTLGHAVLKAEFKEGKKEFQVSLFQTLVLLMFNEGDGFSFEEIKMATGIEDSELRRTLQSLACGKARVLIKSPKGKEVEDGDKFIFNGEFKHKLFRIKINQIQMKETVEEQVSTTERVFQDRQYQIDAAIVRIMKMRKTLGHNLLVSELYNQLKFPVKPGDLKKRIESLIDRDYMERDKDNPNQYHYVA

binding result: no binding
B1: FH-CRBN ΔMid (deletion of amino acids 187 to 260) (other, not shown: small tags and cut ends)
chain: MAGEGDQQDAAHNMGNHLPLLPAESEEEDEMEVEDQDSKEAKKPNIINFDTSLPTSHTYLGADMEEFHGRTLHDDDSCQVIPVLPQVMMILIPGQTLPLQLFHPQEVSMVRNLIQKDRTFAVLAYSNVQEREAQFGTTAEIYAYREEQDFGIEIVKVKAIGRQRFKVLELRTQSDGIQQAKVQILPLREWDENLKDDSLPSNPIDFSYRVAACLPIDDVLRIQLLKIGSAIQRLRCELDIMNKCTSLCCKQCQETEITTKNEIFSLSLCGPMAAYVNPHGYVHETLTVYKACNLNLIGRPSTEHSWFPGYAWTVAQCKICASHIGWKFTATKKDMSPQKFWGLTRSALLPTIPDTEDEISPDKVILCL
